Where two headings read alike, the source gives them in different places.
How the values were obtained:
[1] = target: DmsD (His6T7::DmsD construct) (E. coli) (UniProt P69853); test: ITC
[2] = target: NarJ; settings: cited from earlier work
[3] = target: DmsD (Escherichia coli) (UniProt P69853); settings: cited from earlier work
[4] = target: DmsD (Escherichia coli) (UniProt P69853); settings: cited from earlier work; remark: listed apart in the source
[5] = target: DmsAL15-41 (DmsA twin-arginine leader peptide, residues 15-41) (UniProt P18775); test: ITC; settings: pH 8.0; 30 °C (303.15 K); 100 mM NaCl; 25 mM Tris-HCl (pH 8.0)
[6] = target: DmsAL17-41 (DmsA twin-arginine leader peptide, residues 17-41) (UniProt P18775); test: ITC; settings: pH 8.0; 30 °C (303.15 K); 100 mM NaCl; 25 mM Tris-HCl (pH 8.0)
[7] = target: DmsAL15-41 KK (DmsA leader peptide residues 15-41, twin arginines changed to lysines) R16K;R17K (UniProt P18775); test: ITC; settings: pH 8.0; 30 °C (303.15 K); 100 mM NaCl; 25 mM Tris-HCl (pH 8.0)
[8] = target: DmsAL21-41 (DmsA twin-arginine leader peptide, residues 21-41) (UniProt P18775); test: ITC; settings: pH 8.0; 30 °C (303.15 K); 100 mM NaCl; 25 mM Tris-HCl (pH 8.0)
[9] = target: NarJ (Escherichia coli) (UniProt P0AF26); settings: cited from earlier work
[10] = target: TorD (Escherichia coli) (UniProt P36662); settings: cited from earlier work
Sequence of UniProt P36662 (P36662 whole entry): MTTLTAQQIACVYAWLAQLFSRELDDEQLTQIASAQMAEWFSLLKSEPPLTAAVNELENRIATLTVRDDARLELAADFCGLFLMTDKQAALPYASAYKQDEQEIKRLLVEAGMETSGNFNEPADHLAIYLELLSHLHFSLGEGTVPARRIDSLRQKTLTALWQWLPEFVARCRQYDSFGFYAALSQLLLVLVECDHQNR

Sequence of UniProt P0AF26 (P0AF26 whole entry): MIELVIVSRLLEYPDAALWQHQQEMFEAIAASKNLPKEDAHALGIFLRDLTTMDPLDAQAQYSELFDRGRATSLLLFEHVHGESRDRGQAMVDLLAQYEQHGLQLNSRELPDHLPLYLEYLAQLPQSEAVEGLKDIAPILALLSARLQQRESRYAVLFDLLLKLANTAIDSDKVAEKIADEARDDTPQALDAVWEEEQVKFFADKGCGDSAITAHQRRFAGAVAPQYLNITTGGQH

| Substance | Kd [1] | dH [1] | stoichiometry N [1] | other results |
| --- | --- | --- | --- | --- |
| DmsAL_(21–41) (from UniProt P18775 21-41) (peptide) | 3900 nM | -4.3 kcal/mol | 1.14 | Ka [1]: 260000 M⁻¹ |
| 15 N-terminal residues of NarG: 15 amino-terminal residues of NarG, contain a remnant RR motif (MSKFLDRFRYFKQKG; UniProt P09152 1-15, looked up, fragment) | – | – | – | Kd [2]: ~100 nM |
| DmsA leader peptide 1-43 (from UniProt P18775) | – | – | – | Kd [3]: 60 nM; Kd [4]: 200 nM |
| DmsAL_(15–41 KK) (from UniProt P18775 15-41) (peptide) | 2900 nM | – | 1.09 | – |
| DmsD (Tat proofreading chaperone / redox enzyme maturation protein) | – | – | – | ΔH (apparent, Tris) [5]: -11.7 kcal/mol; ΔH (apparent, Tris) [6]: -9.5 kcal/mol; ΔH (apparent, Tris) [7]: -10 kcal/mol; ΔH (apparent, Tris) [8]: -4.3 kcal/mol |
| NarG N-terminal peptide 1-15 (from UniProt P09152) | – | – | – | Kd [9]: 100 nM |
| DmsAL_(15–41) (from UniProt P18775 15-41) (peptide) | 1700 nM | -11.7 kcal/mol | 1.04 | Ka [1]: 600000 M⁻¹ |
| DmsAL_(17–41) (from UniProt P18775 17-41) (peptide) | 2100 nM | -9.5 kcal/mol | 1.04 | – |
| TorA leader peptide (from UniProt P33225) | – | – | – | Kd [10]: 1800 nM |

Reference: PMC3812903 (Biochemistry, 2013)
